Assays:
[1] = molecular target: T1, human EpCAM on COLO-205 cells (human, UniProt P16422 24-314); experiment: flow cytometry, ratio of the signal on COLO-205 (EpCAM+) to that on A375 (EpCAM-) cells
T1 construct: whole, on cells; Endogenous EpCAM of the EpCAM-positive cell line COLO-205; also called epithelial cell adhesion molecule; Colo205 (EpCAM+)
T1 sequence (looked up): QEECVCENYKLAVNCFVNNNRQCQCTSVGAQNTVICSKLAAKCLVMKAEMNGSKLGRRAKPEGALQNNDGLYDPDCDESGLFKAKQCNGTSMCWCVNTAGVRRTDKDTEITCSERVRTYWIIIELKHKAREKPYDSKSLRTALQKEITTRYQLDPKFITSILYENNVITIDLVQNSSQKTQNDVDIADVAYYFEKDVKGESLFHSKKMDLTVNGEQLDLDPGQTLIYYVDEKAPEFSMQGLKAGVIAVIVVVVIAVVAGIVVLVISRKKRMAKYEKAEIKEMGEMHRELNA
Method: (§1) Three rounds of CIS display panning on recombinant huEpCAM protein (R&D Systems) were performed using TCL23 as described previously. The output from Round 3 was amplified and cloned into phagemid vector containing truncated pIII. An additional 4 rounds of selection on recombinant protein human EpCAM and Colo 205 (positive cells) with negative selection on A375 (negative cells) was performed. After 4 rounds of selection on recombinant protein and Colo 205 cells, 96 individual clones were assayed for binding to Colo 205 cells by phage ELISA; EpCAM negative cells (A375) were used as a negative control. Phage binding was assessed using a labeled anti-M13 antibody. Clones that were positive by phage ELISA were subcloned into a bispecific Centyrin expression plasmid where the carboxy terminal domain was an albumin binding Centyrin (H9). Soluble Centyrins were expressed, recovered from periplasmic extracts and assessed for binding to Colo205 (EpCAM+) and A375 (EpCAM-) (Table 4).

[2] = molecular target: T1, human EpCAM on COLO-205 cells; experiment: flow cytometry, periplasmic extract of soluble Centyrin on COLO-205 (EpCAM+) cells
Method: as §1

[3] = molecular target: T1, human EpCAM on COLO-205 cells; experiment: cell-based or functional assay

B1: EpCAM binding FN3 domain clone 1807 (designed binder)
chain: MLPAPKNLVVSRVTEDSARLSWTAPDAAFDSFYIRYYEGSGYGEAIVLTVPGSERSYDLTGLKPGTEYYVYIGGVKGGSPSSPLSAIFTTG
notes: not shown: No entry is named H9
[1]
  COLO-205/A375: 4.4
[2]
  Mean BL-1 P.E. COLO-205: 12900

B2: EpCAM binding FN3 domain clone 1420 (designed binder)
chain: MLPAPKNLVVSRVTEDSARLSWEGYRNNAHFDSFLIQYQESEKVGEAIVLTVPGSERSYDLTGLKPGTEYTVSIYGVVAAVPRNYYSNPLSAIFTT
notes: as for B1
[1]
  COLO-205/A375: 25.8
[2]
  Mean BL-1 P.E. COLO-205: 22600

B3: EpCAM FN3 domain-MMAF conjugate of clone 639 (designed binder)
chain: MLPAPKNLVVSRVTEDSARLSWTAPDAAFDSFSISYRERSAWGEAIALVVPGSERSYDLTGLKPGIEYIVGIIGVKGGLRSNPLRADFTT
modifications: VC-MMAF (maleimide) on a cysteine; position of the cysteine not stated
[3]
  IC50 of EpCAM FN3 domain-MMAF conjugate molecules in COLO-205 Cells (cell viability, Cell TiterGlo, 72 hours): 2.2 nM

B4: EpCAM binding FN3 domain clone 639 (designed binder)
chain: MLPAPKNLVVSRVTEDSARLSWTAPDAAFDSFSISYRERSAWGEAIALVVPGSERSYDLTGLKPGIEYIVGIIGVKGGLRSNPLRADFTT
notes: as for B1
[1]
  COLO-205/A375: 11
[2]
  Mean BL-1 P.E. COLO-205: 10100

B5: EpCAM FN3 domain-MMAF conjugate of clone 680 (designed binder)
chain: MLPAPKNLVVSRVTEDSARLSWTAPYAAFDSFAISYRERSREGEVIALTVPGSERSYDLTGLKPGTEYIVGILGVKGGRRSKPLRAQFTT
modifications: VC-MMAF (maleimide) on a cysteine; position of the cysteine not stated
[3]
  IC50 of EpCAM FN3 domain-MMAF conjugate molecules in COLO-205 Cells (cell viability, Cell TiterGlo, 72 hours): 0.11 nM

B6: EpCAM binding FN3 domain clone 680 (designed binder)
chain: MLPAPKNLVVSRVTEDSARLSWTAPYAAFDSFAISYRERSREGEVIALTVPGSERSYDLTGLKPGTEYIVGILGVKGGRRSKPLRAQFTT
notes: as for B1
[1]
  COLO-205/A375: 11.9
[2]
  Mean BL-1 P.E. COLO-205: 10400

B7: EpCAM binding FN3 domain clone 1874 (designed binder)
chain: MLPAPKNLVVSRVTEDSARLSWTAPDAAFDSFKIGYWEWRKYGEAIELNVPGSERSYDLTGLKPGTEYRVLIYGVKGGAGSHPLRALFTT
notes: as for B1
[1]
  COLO-205/A375: 12.1
[2]
  Mean BL-1 P.E. COLO-205: 27100
